The text below walks through data of the nanobody polyreactivity screen of Harvey et al. (2022).

The data set can be described thus: yeast display, Sf9 membrane polyspecificity reagent, FACS + sequencing; frameworks hold sequencing errors. Put shortly: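 Sorting gates, low and high (top ~1%), were placed on anti-HA fluorescence to track expression and on streptavidin fluorescence to track reagent binding. A clone's polyreactivity label is taken from the gate it came out of. The reagent was 10% biotinylated, detergent-solubilized Sf9 membrane, applied for 1 hour at 4 °C to galactose-induced yeast display cells.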
As for “QVQLEESGGGLVQAGGSLRLSCAASGSIFVRNAMGWYRQAPGKERELVASISRRGGSTYYADSVKGRFTISRDNAKNTVYLQMISLKPEDTAVYYCAARNQIVPYGTYNYWGQGTQVTVSS”, the “polyreactivity (PSR sort gate)” value is listed as “high polyreactivity”.
Take “QVQLGESGGGLVQAVGSLRLSCAASGSTFRGNAMGWYRQAPAKARELVAANTSDGSTSYADSVKGRFTISRDNAKNTVYLQMNSLKPEDTAVYYSNADYHQSIWEAVDFEYDYWGQGTQVTVSS”: the “polyreactivity (PSR sort gate)” value is on record as “low polyreactivity”.
As to “QVQHVESGGGLVHAGGSLRLSCAASGTTFYFNPMGWSRQAPGKERELVASITWRGVSTYYADSVKGRFTISRDNAKNTVYLHMNSLNPEDTAVYYCAVAAGIPQRRFYYWGQGTQVTVSS”, the “polyreactivity (PSR sort gate)” value is “high polyreactivity”.
With “QVQLVESGGGLVQAGGSLRLSCAASGRIFSGYAMGWYRQAPGKERELVAAITSVGSTNYADSVKGRFTISRDNAKNNVYLQMNSLKPEDTAVYYCAARSQSYYRYRSYGYWGQGTQVTVSS”, the “polyreactivity (PSR sort gate)” value is listed as “high polyreactivity”.
Take “QVQLVESGGGLVQAGGSLRLTCAASGTIFKRYAMRLYRQAPGKERELVATISSRGSCTNYADSLKGRFTISRDIAKNTVYLQMNSLKPQDTAVYYCASEVYRGDFWGQGTQVTVSS”: the “polyreactivity (PSR sort gate)” value is “high polyreactivity”.
“QVQLVESGGGLVQAGGSLRLSCAASGSTFFFNAMGWYRQAPGKERELVAGISSSGGSTHYADSVKGRFTISRDNAKNTVYLQMNSLKPEDTAVYYCNAQQYLTFRGTGDYWGQGTQVTVSS”: the “polyreactivity (PSR sort gate)” value is recorded as “low polyreactivity”.
Then “QVQLVESGGGLVQAGGSLRLSCAASGSILGYNAMGWYRQAPGKEREFVAAITYSGGTTYYADSVKGRFTISRDNAKNTVYLQMNSLKPEDTAVYYCAADYSVYDEFDYWGQGTQVTVSS”, with “high polyreactivity”; and “QVQLVESGAGLVQAGGSLRLSCAASGSTFGFNTMGWYRQAPGKERELVAAISWSTGRTNYADSVKGRFTISRDNAKNTVYLQMNRLKPEDTAVYYCAARALDKYRFGGRYDYWGQGTQVTVSS”, with “low polyreactivity”.
For the sequence “QVQLVESGGGLVQAGGSLRLSCAASGRTFNGNAMGWYRQAPGKERELVAGISTSDGSTYYADSVKGRFTISRDNAKNTVYLQMNSLKPVDTAVYDCAAYSHHQFSSSEYYYWGQGTQLTVSS”, the “polyreactivity (PSR sort gate)” value was “low polyreactivity”.
The result for “QLQLQEGGGGLLQAGGSLRLSCAASGYISYGDVMGWYRQAPGEERELVASIGLDATTNYADSVKGRFTISRDNSKNTVYLQMNSLKPEDTAVYYCPADRGAPFSLHYWGQGTQVTVSS” reads “high polyreactivity”; that for “QVLLQESGGGLVQAGGSLRLSCAASGNIFSAGGMGWYRQAPVNERELVAGIGTGTSTNYADSVKGRFTISRDNANNTVYLQMNSLKPEDTAVYYCAAAYYSGLSHWYWGQGTQVTVSS”, “low polyreactivity”; that for “QVQLVESGGGLVQAGGSLRLSCAASGRTFFQYAMGWYRQAPGKERELVATIRSGGSTYYADSVKGRFTISRDNAKNTVYLQMNSLKPEDTAVYYCATRYTRFRHFDYWGQGTQVTVSS”, “low polyreactivity”.
With “QVQLEESGGGLVQAGGSLRLSCAASGRIFQRNAMGWYRQAPGKEREFVAAITKSGGGTYADSVKGRFTISRDNAKNTVYLQMNSLKAEDTAVYYCNVVPVWRPYSLINWQKDFGYWGQGTQVTVSS”, the “polyreactivity (PSR sort gate)” value is reported as “high polyreactivity”.
Then “QVQLVESGGGLVQAGGSLRLSCAASGFTFRANGMGWYRQAPGKERELVATITSGGTTNYADSVKGRFTISRDNAKNTVYFQMNSLKPEDTAVLYCAKRFGPAYFRLYDYWGQGTQVTVSS”, with “low polyreactivity”; and “QVQLVESGGGLVQAGGSLRLSCAASGFIFDGYAMGWYRPAPGKERELVAAIDSGGDRTYYADSVKGRFTISRDNAKNTVYLQMNSLKPEDTAVYYCAADSSDPTGYDYWGQGTQVTVSS”, with “low polyreactivity”.
Take “QVQLVESGGGLVQAGGSLRLRCAASGRTFGPYTMGWYRQAPGKEREFVAAINSSGSRTYYADSVKGRFTISRDNAKNTVYLQMNSLKPEDTAVYYCAAEAKWYYSWSYPYEGDYWGQGTQVTVSS”: the “polyreactivity (PSR sort gate)” value was “low polyreactivity”.
As for “QVQLVESGGGLVQAGGSLRLSCAASGRIFGHYAMGWYRQAPGKERELVAAIRYSAGRTYYAGSVKGRFTISRDNAKNTVYLQMNSLKPEDTAVYYCAKTSRYLTGGGDYWGQGTQVTVSS”, the “polyreactivity (PSR sort gate)” value is reported as “high polyreactivity”.
Then “QVQLVESGGGLVQAGGSLRLSCAASGSIFKQYAMGWYRQAPGKERELVARITGSGGSTYYADSVKGRFTISRDNAKNTVYLQLNSLKPEDTAVYYCANKRYARSSGGYDYWGQGTQVTVSS”, with “low polyreactivity”.
Take “QVQLVESGGGLVQAGGSLRLSCAASGLIFYRNAMGWYRQAPGKERELVAGISASGGRTYYADSVNGRFTISRDNAKNTVYLQMNSLKPEDTAVYYCNRPSIYRYPQRLLGNFWGQGTQVTVSS”: the “polyreactivity (PSR sort gate)” value is “high polyreactivity”.
For the sequence “QVQLVESGGGLVQAGGSLRLTCAASGFIFNFYAMGWYRQAPGKERELVAAISRNGGSTYYADSVKGRFTISRDNAKNTVYLQMNSLKPEDTAVYYCNAGGSYGDFGYWGKGTQVTVSS”, the “polyreactivity (PSR sort gate)” value is on record as “high polyreactivity”.
The result for “QVQLEESGGGLVQEGGSLRISCAASGRTFLRYVMGWYRQAPGKERALVAAISSRGGSTYYADSVKGRFTISRDNAKNTVYLQMNSLKPEDTAVYYCAARFKVRDYPDGNYEYWGQGTQVTVSS” reads “high polyreactivity”; that for “QVQLVESGGGLVQAGGSLRLSCAASGFIFENNAKGWYRQAPGKERELVAGITSGGGSTYYADSVKGRFTISRDNAKNTVYLQMNSLKPEDTAVYYFNKLYTRVGFTFEYWGQGTQVNVSS”, “low polyreactivity”; that for “QVQLVESGGGLVQAGGSLRLSCAASGSTFGKYAMGWYRQAPGKERELVARIDSGDRTRYADSVKGRFTISRDNAKNTVYLQMNSLKPEDTAVYYCAARYVGARNAYRMGYWGQGTQVTVSS”, “high polyreactivity”.
Then “QVQLVESGGGLVQAGGSLRLSCAASGSIFWYYAMGWYRQAPGKERELVAAIRRGGSTTYADSVKGRFTISRDNAKNTVYLQMNSLKPEDTAVYYCAAEPYYWYRGDYWGQGTQVTVSS”, with “high polyreactivity”.
Then “QVQLVESGGGLVQAGGRLRLSCAASGSIFRRYAMGWYRQEPGKERELVAVITTDGSTYYADSVKGRFTISRDNAKNTVYLQMNSLKPEDTAVYYCAAEVYVIGDSGYDYWGQGTQVTVSS”, with “low polyreactivity”; and “QVQLVESGGGLVQAGGSLRLSCAASGSIFYSNAMGWYRQAPGKERELVAAISWSGGSTYYADSVKGRFTISRDYAKNTVYLQMNSLKPEDTAVYYCAASYDIYYYDAASLDDYDYWGQGTQVTVSS”, with “low polyreactivity”; and “QVQHVESGGGLVQAGGSLRLTCAASGNTFWWNAMGWYRQAPGKERELVAAISWRGGSTYYADSVKGRFTISRDNAKNTVYLQMKCLKPEDTAVYYCAKRNYHDESVVEEDYWGQGTQVTVSS”, with “low polyreactivity”.
Regarding “QVQLVESGGGLVQAGGSLRLSCAASGLTFRKYVMGWYRQAPGKERELVAAISGGGGSTYYADSVKGRFTISRDNAKNTVYLQMNSLKPEDTAVYYCAAVIYRGYYYWGQGTQVTVSS”, the “polyreactivity (PSR sort gate)” value is given as “high polyreactivity”.
As for “QVQLVESGGGLVQAGGSLRLSCAASGSTVYVYAMGWYRQAPGKERELVATISSSGAITYYADSVKGRFTISRDNAKNTVYLQMNSLKPEDTAVYYCARTGSLLSQVWYNYWGQGTQVTVSS”, the “polyreactivity (PSR sort gate)” value was “low polyreactivity”.
Then “QVQLVESGGGLVQAGGSLRLSCAASGRIFGLNSLGWYRQAPGNEMELVAAIDIIGGSTYYADSVKGRFTISRDNAKNTVYLQMNSLKPEDTAVYYCAAEADFWRYVEYDYWGQGTQVTVSS”, with “low polyreactivity”; and “QVQLVESGGGLVQAGGSLRLSCAASGFTFYTYAMGWYRQPPGKERELVAAISRRGGSTYYADSVKGRFTISRDNAKNTVYLQMNSLKPEDTAVYYFNAVADSYSGFDGYYYWGQGTQVTVSS”, with “high polyreactivity”; and “QVQLVESGGGLVQAGGSLRLSCAASGLTFTYYAMGWNRQAPGKQRELVAAISSSGSDTYYADSVKGRFTISRDNAKNTVYLLMNSLKPEDTAVYYCAAVLTALSPDFEYEYWGQGTQVTVSS”, with “low polyreactivity”.
The result for “QVQLVETGGGLVQAGGSLRLSCAASGNTFVLYAMGWYRQAPGKERELVAAIRRGVRTYADSVKGRFTISRDNAKNTFYLQMNSLIPDDTAVYYCAAYYVFLDNDYWGHGTQVTVSS” reads “high polyreactivity”; that for “QVQLVESGGGLVQAGGSLRLSCAASGFIFYKYAMGWYRQAPRKEREFVASISGSGGRTYYADSVKGRFTISRDNAKNTVYLQMNSLKPEDTAVYYCAVDLLRRGFPTVVTTYDYWGQGTQVTVSS”, “high polyreactivity”; that for “QVQLVESGGGLVQAGGSLRLSCAASGSIFRTNAMGWYRQAPGKERELVASISRRGGSTYYADSVKGRFTISRDNAKNTVYLQMNSLKPEDTAVYYCAAVGYYSNTLHPWWDMYYWGQGTQVTVSS”, “high polyreactivity”.
Consider “QVQLVESGGGLVQAGGSLRLSCAASGSTFYSNPMGWSRQAPGKESEFVAAISWSGGSTYYADSVKGRFTISRDNAKNSVYFQMYSLKPQDTAVYSCAKKPYYYAYGGYGYWGQGNQVTVSS”, for which the “polyreactivity (PSR sort gate)” value is listed as “high polyreactivity”.
Take “QVQLVESGGGLVQAGGSLRLSCAASGRIFGYYAMGWYRQAPGTERELVAAITYNGASTYYADSVKGRFTISRDNAKNTVYLQMNSLKPEDTAVYYCAVLTRYGGYGYWGQGTQVTVSS”: the “polyreactivity (PSR sort gate)” value was “high polyreactivity”.
For the sequence “QVQLVESGGGLVQAGGSLRLSCAASGSIFRGYAMGWYRQAPEKERELVAAMSRRGGSTYYADSVKGRFTISRDNAKNTVYLQMNSLKPEDTAVYYCAADWLSWFHGYGMYYWGQGTQVTVSS”, the “polyreactivity (PSR sort gate)” value was “low polyreactivity”.
With “QVQLVESGGGLVQAGGSLRLSCAASGGTFTFKTMGWYRQAPGKERQLVAAISISGGSTYYADSVKGRFTISRDNAKNTVYLQMNSLKPEDTAVYYCAAQYVRTPSPEYDYWGQGTQVTVSS”, the “polyreactivity (PSR sort gate)” value was “high polyreactivity”.
In the case of “QVQLVESGGCLVQAGGSLRLSCAASGSTFTLYAMGWYRPAPGKERELVAAIRRGGSTNYADSVKGRFTISRDNAKNTDYLQMNSLKPEDTAVYYCAADSYTSRSRYSGSGGYDYGGQGTQVTVSS”, the “polyreactivity (PSR sort gate)” value is reported as “low polyreactivity”.
